In publication PMC4620370 (Journal of Gynecologic Oncology, 2015):
No end group written: not given here. *: point of attachment. FITC = O=C1OC2(c3ccc(O)cc3Oc3cc(O)ccc32)c2ccc(NC(=S)*)cc21; Ahx = NCCCCCC(=O)O

Key:
[1] = tested on: VEGFR-3 in ovarian carcinoma tissue sections; set-up: species or system human; conditions: FITC-tagged peptide, overnight at 4℃, confocal laser scanning fluorescence microscopy; Fig. 5B, D
[2] = tested on: SKOV3 ovarian cancer cells (tumor-bearing mice); experiment: In vivo targeting of 99mTc-labeled peptide to ovarian tumors; set-up: species or system Balb/c-nu mice; conditions: ~3,700 kBq ^99mTc/100 µg peptide, n=6
[3] = cited from earlier work
rhVEGFR-3 = experiment: Phage screening; format: binding, human; conditions: negative peptide used as immunofluorescence control

FITC-(aminohexanoic, AHX)-WHWLPNLRHYAS [FITC-tagged peptide III]
interaction with VEGFR-3 (immunofluorescence) [1]: could interact with VEGFR-3

NHS-MAG3-SHSWHWLPNLRHYAS [^99mTc-labeled peptide]
time of peak radioactivity from ovarian tumor cells after tail vein injection [2]: 3 h

bevacizumab: a monoclonal antibody specific for VEGF
serious adverse events associated [3]: venous thromboembolism, hypertension, proteinuria, arterial thrombosis, bleeding, and gastrointestinal perforation | risk of fatal adverse events ([3]; meta-analysis that included 34 trials): increased

{FITC-Ahx}-WHNSLKANYTWG [FITC-labeled negative peptide]
binding in the phage screening procedure (rhVEGFR-3): negative binding
